These results are taken from PMC8794823.

Assay in all cases: SPR
(SPR reads the build-up and loss of mass on a sensor chip optically.)

The target in assay [1] is CVB3/GS12-55/GS/CHN/2012 (VP3-234V) full particles (coxsackievirus B3, isolate GS12-55/GS/CHN/2012).
Assay [2] concerns the target CVB3/HuN16-54/HuN/CHN/2016 (VP3-234D) full particles (coxsackievirus B3, isolate HuN16-54/HuN/CHN/2016).
The target of assay [3] is CVB3/MKP3 (VP3-234Q) full particles (coxsackievirus B3, strain MKP).
Assay [4] addresses CVB3/XJ12-36/XJ/CHN/2012 (VP3-234N) full particles (coxsackievirus B3, isolate XJ12-36/XJ/CHN/2012).

Usually Kd stands for the constant that tells how readily two partners part at equilibrium. Consider “soluble extracellular domain of the human CD55 protein (from UniProt P08174 35-285) (receptor)”, for which the Kd in assay [1] is 10 µM; in assay [2], 46 µM; in assay [3], 0.465 µM; in assay [4] it was 7.8 µM.

In assay [3], “soluble extracellular D1 and D2 domains of the human CAR protein (from UniProt P78310 20-236) (receptor)” yielded a dissociation constant (Kd) of 3.16 µM.
